Laboratory results published in paper PMC3261901.

How the values were obtained:
[1] = biological target: Trypanosoma cruzi oligopeptidase B (OPBTc), recombinant, N-terminal His-tagged (Trypanosoma cruzi (CL Brener)); test: AUC; sedimentation velocity, 10 °C, OPBTc at 28.1, 8.4 and 1.8 µM in 25 mM Tris pH 8.0, 100 mM NaCl, 130,000 x g; c(s) analysis, s combined with the Stokes radius from SEC
[2] = biological target: Trypanosoma cruzi oligopeptidase B (OPBTc), recombinant, N-terminal His-tagged (Trypanosoma cruzi (CL Brener)); test: SEC; Superdex 200 10/300, 25 mM Tris-HCl pH 8.0, 200 mM NaCl, room temperature, calibrated with proteins of known Stokes radii; also run with 0.5 or 1.0 M NaCl (same elution, dimer not disrupted)
[3] = biological target: Trypanosoma cruzi oligopeptidase B (OPBTc), recombinant, N-terminal His-tagged (Trypanosoma cruzi (CL Brener)); test: SEC; enzyme incubated at 28, 37, 42, 50 or 60°C for 20 min before the run; Superdex 200 10/300, 25 mM Tris-HCl pH 8.0; at 50 and 60°C a void-volume aggregate peak and a second peak of 160 kDa

Measured: stoichiometry N

Trypanosoma cruzi oligopeptidase B (OPBTc), recombinant, N-terminal His-tagged (enzyme)
2: all assays above
